Measured values reported in paper PMC9170038.

Molecular target: MS2 coat protein, dlFG mutant (Escherichia phage MS2, UniProt P03612, del68-81insG)
Assay: 4 mM Mg2+; no ligand; RNA-MaP array; 100 mM Tris-HCl pH 7.5, 80 mM KCl, 4 mM MgCl2, 0.1 mg/mL BSA, 1 mM DTT, 0.01 mg/mL yeast tRNA, 0.01% Tween-20; protein 1.5 nM to 3 uM; 37 C (Table S3)
Settings: chain copies: 2; label: tethered by stalled RNA polymerase

Binder | Kd [nM]
Eterna 7675501 (Same State - Theophylline B) (ssRNA) RNA: CCAUCGCUAUUCGAUACCAGUCAUAAAAUCUUUGGUUAAAUAAAGGAGUGAUGUUCCAAAGACCCUUGGCAGCGAAUAGUGAUGG | > 3000
Eterna 7730292 (Same State - Arginine B) (ssRNA) RNA: UGUAUGGACUGAAGGAGCGGAAAAUAAACCUGAGGAUCACCCGGGUAAUAGGCGAAAGCCAUCCAGGUAGGUCGCAGUCCAUACU | 279
Eterna 7609491 (Same State - Tryptophan A) (ssRNA) RNA: ACAUGAGGAUCACCCAUGUUUGUUGUUCCUCGAGGACCGGUACGGCCGCCACUCGAACGAGUGGCACGCGAGUGCGCACUCGCGU | 12.3
Eterna 6095051 (Same State NG 3) (ssRNA) RNA: UUAACAUGAGGAUCACCCAUGUAAAGAACGGUUAAUUAAAGUGAGGAUAUACAAAAUUUUAUAUUGUAGAAGGCACUGGGUACA | 19.5
Eterna 6441202 (Exclusion NG 1) (ssRNA) RNA: ACAUUUUAUGCAGGAUAUUGACAUAGGAUUAAACAAGAAGGGCAUUACAUGAGGAUCACCCAUGUUUUAUUGGUAUAUAAGUUC | 15.5
Eterna 5984275 (Exclusion 4) (ssRNA) RNA: AUUGUGUGAGGAUAUUAGCAGUAGACGAAUGGAGUCGUGGCUGAGAAGGCACAUGAGGAUCACCCAUGUUCCUU | 16.8
Eterna 7610184 (Exclusion - Tryptophan B) (ssRNA) RNA: GGAGCUACGUCGGCCGCCACUAGCGGGUAUUGCGUGUACAUGAGGAUCACCCAUGUAAUACGGCCUAGGACCGGGACGUAGCUCC | 12
Eterna 7673920 (Same State - Theophylline B) (ssRNA) RNA: UGUAUGUGAUCUGAUACCAGCGUUGAUAACCUGAGGAUCACCCUGGUAAGGCGAAAGCCACGCCCUUGGCAGCAGAUCGCAUACU | 193
Eterna 7722704 (Same State - FMN A) (ssRNA) RNA: GGCAGUGAUGUUGCCUAAGCAACGCAUGCAGAGGAUAUUCGUUCGGGAAGAAGGCUGCAGCGUUCUCUCGUCAGUGAUGUUGGCG | > 3000
Eterna 7741440 (Same State - Theophylline A) (ssRNA) RNA: GGAGUGAUGUUCCAUUUUUAAAUCUCCGAUACCAGUAUGGAAACAUACCCUUGGCAGCGGUAAACCGCAGAUUAGGAAACUAGUC | > 3000
Eterna 1619 (Same State - Theophylline A) (ssRNA) RNA: GUGUAAGUGAUGUUUGCACACACGUCGGAUACCAGAGACUUUAGCCUCCCUUGGCAGCCGCCGGCCAUAAGAGCAAGUCGAUUUA | > 3000
Eterna 1038 (Exclusion - FMN A) (ssRNA) RNA: UCACCGCCUAGUGAUGUUACGCGACUCAGAAAGGAUAUAAUCAAUCUUAGAAGGUUCACACCGUAUGGAUAUUAUCUAUCUCGUU | > 3000
Eterna 6439566 (Inverted Small Loop Same State NG 1) (ssRNA) RNA: GGACAUUUACAGAAGGGCAAGCUCGAAAGCGGAGAACGCGAACGAGCUUGCAGGAUAUGUUGAACAUGAGGAUCACCCAUGUCU | 8.1
Eterna 5982897 (Exclusion 6) (ssRNA) RNA: GCAUGCUCCGAGGAUAUCGAAGCUAAUUAUGCACGAGAAGGCGGAACAUGAGGAUCACCCAUGUGAUGCCUAAA | 14.4
Eterna 1225 (Exclusion - Tryptophan A) (ssRNA) RNA: GGAGGCCAGGCCUGCGAAGUGAUGUUUUGACGAGGACCGGUACGGCCGCCACUCGAAUGUUCUAUCAUCGUACGAACUUCUGCGU | > 3000
Eterna 6073973 (Exclusion 2) (ssRNA) RNA: UAGAUGGGAGGAUAUACGUAUAUGCAGGUUCGUGUGGUGCUACAUGAGGAUCACCCAUGUAGAAGGCCCGUCUU | 19.1
Eterna 7734762 (Same State - FMN B) (ssRNA) RNA: UGUACCGAGUAAGGAUAUGUCGUCGAAAGACGAAAUGGAGUGAUGUUCCUUAAACUGCGAAAGCAGACAGAAGGUACUUGGUACU | > 3000
Eterna 6055371 (Brourd's mod of Exclusion 4) (ssRNA) RNA: GAUCGCCAUGUCAGGAUAUCUUGUAUACCCACGUUAGAGAAGGGACAUGAGGAUCACCCAUGUACCCUGGUUUU | 15.4
Eterna 7739457 (Exclusion - Theophylline B) (ssRNA) RNA: UUAUAUAUAUUAGAUACCAGUUUAAUGGAAACAAAUUAUGUUAUGAGUGAUGUUCAUGUAAGCCCUUGGCAGCUGGUAUGGGUUU | > 3000
Eterna 7739340 (Same State - Theophylline A) (ssRNA) RNA: ACCAUCAAAGAUGGCCAGGACUCAACUGAUACCAGAGUGGAGACACUCCCUUGGCAGCAGGUGAGUGAUGUUCACGAGUCCUGGA | > 3000
Eterna 7696080 (Exclusion - Tryptophan B) (ssRNA) RNA: UGAUACCAGACGGCCGCCACUAGGACCGGGAGUGAUGUUCCCAAUUUAAAAUGCUCGGCCGCCACUAGGACCGGGUCUGGUAUCU | > 3000

Binder | Kd [nM]
Eterna 7691377 (Same State - Tryptophan B) (ssRNA) RNA: UAUCUAUGCUCGGCCGCCACUAGGACCGGGAGGUAACUAGUGAUGUUAGUAUCUUCGGCCGCCACUAGGACCGGGAGUGUAGAUA | > 3000
Eterna 6095017 (Exclusion NG 3) (ssRNA) RNA: AAGGACUGUAAUAAUGUAGAAAUACAUGAGGAUCACCCAUGUAAGGAUAUCGUCAGGAAUACUGACGAGAAGGUACAUCAGUCC | 16.5
Eterna 7730917 (Exclusion - Tryptophan A) (ssRNA) RNA: AGACUGUCUUCGGACAGUCCGGACAGCCCGCGAGGACCGGUACGGCCGCCACUCGCGUGAGGAUCACCCAUGCGAGGCUGUCCGA | 34.7
Eterna 6429522 (Inverted Exclusion NG 3) (ssRNA) RNA: GUGGAUAGACGCCCACGUGAGACAUGAGGAUCACCCAUGUACAGAAGGUGGAGCGUUAAUGGUGCCAAGGAUAUGUACAUAAGG | 4.92
Eterna 9910 (Sensor v3, turn-off variant 1) (ssRNA) RNA: GAUUAUGCAAGCUUUCGGGACAUGAGGAUCACCCAUGUUCGUCUUAUUGAUCUAGGUACGCUGACGUACCUAGAUCU | 16.5
Eterna 6433398 (Small Loop Exclusion NG 3) (ssRNA) RNA: UGAUCGAGAGAUCUUAGAUUCUGGUAGGAUAUACAUUAUAAAAGCUUUACAUGAGGAUCACCCAUGUAGAAGGACUAGAGUCUA | 6.84
Eterna 7745160 (Same State - Arginine B) (ssRNA) RNA: GUUAAGUCGCGAAGGAGCGCGAACUAACAACGCAGUGAUGUUGCGUUGUACGUAGUAUAAUCGCAGGUAGGUCGCGCGACAGGCC | > 3000
Eterna 7734716 (Exclusion - FMN B) (ssRNA) RNA: GGAUAGGACACAGGAUAUGGUAGUGAUGUUACCAAACUGGUUAAACAUGUCAGAAAACUGGCAUGACCAGAAGGGUGUCCUAUCG | > 3000
Eterna 7730095 (Same State - Theophylline B) (ssRNA) RNA: UGUAUGUGAUCUGAUACCAGUCCAACUGGUAAACCAUGAGGAUCACCCAUGGAAAAUUGGGACCCUUGGCAGCAGAUCGCAUACU | 310
Eterna 7653871 (Same State - Theophylline B) (ssRNA) RNA: UGUAUGUGAUUUGAUACCAGACCAGCUGGUGGUGCAUGAGGAACACCCAUGCAGGUUUGGGUCCCUUGGCAGCAAAUCGCAUACU | 145
Eterna 7653873 (Same State - Theophylline B) (ssRNA) RNA: UGUAUGUGAUUUGAUACCAGACCAGCUGGUGGUCCAUGAGGAACACCCAUGGAGGUUUGGGUCCCUUGGCAGCAAAUCGCAUACU | 83.2
Eterna 6456081 (Exclusion NG 2) (ssRNA) RNA: GGAUAGGACAGAGGAUAUACGUGCUAGAGAUACUAGCAAAAUUUCCACACAUGAGGAUCACCCAUGUAGAAGGCUGUCCUAUCG | 5.84
Eterna 7736465 (Same State - FMN A) (ssRNA) RNA: UUUCUUUUCUUUUGCGAUCCUAUCCCUUAUAAGGAUAUCUAGAAAUAGAGAAGGUAUGCAGUGAUGUUGCUUGGGAUAGGAUCGC | > 3000
Eterna 5789023 (Sensor v3, turn-off variant 2) (ssRNA) RNA: ACAAGCUUUUUGUUCGUCUUAUAAAAUCCUAAGAGGAAAACAUGAGGAUCACCCAUGUAACAAAGACGGACUCAUGU | 13
Eterna 6146924 (Exclusion NG 1) (ssRNA) RNA: GUGACGGAUGUAGGAUAUGCUGACCAAUGGUCAGCAGAAGGACAUGAGGAUCACCCAUGUCAUCCUUAUAAUAAAUACCGUCAC | 13.7
Eterna 7729933 (Exclusion - Tryptophan B) (ssRNA) RNA: GGAUAGGACACGGCCGCCACUUGCUAGGAUACUAGCAACAUUUCCUCUCAUGAGGAUCACCCAUGAAGGACCGGGUGUCCUAUCG | 20.8
Eterna 6428572 (Exclusion NG 2) (ssRNA) RNA: GUCUCCGCUCGAGGAUAUAGCUGCAUGUAGUGUCCUGAGGCACAUGAGGAUCACCCAUGUGUAGGCUAGAAGGCGACGGACACU | 11
Eterna 7716400 (Same State - Theophylline B) (ssRNA) RNA: AUUUGUUUAUGUGAUACCAGACUAAGCAGUGAUGUUGCUUUUAUUUUUGAAUUUUAAAUAGUCCCUUGGCAGCACUAUGUCUGUA | > 3000
Eterna 6381991 (Exclusion NG 1) (ssRNA) RNA: AUGCUUUAUGUAGGAUAUGCAUACGGUACGUAUGCAGAAGGACAUGAGGAUCACCCAUGUAAAUUAUUAUUACAUAUCAUACAU | 10.9
Eterna 7758792 (Exclusion - Tryptophan B) (ssRNA) RNA: UGAUACCAGACGGCCGCCACUCCCGUAAGUCAAAGACUUACGAAGAGGGUUUUUCAGUGAUGUUGGAGGACCGGGUCUGGUAUCU | > 3000
Eterna 5979585 (Sensor, turn-off variant 1) (ssRNA) RNA: UACACUGCAUGAGGAUCAAACAUGAGGAUCACCCAUGUAUAGCAGGCUUUUUGUACGUCUUAUAAUUAUGUAGUGUA | 15.1
